Data published in article PMC4068353, “Characterization of 14-3-3-ζ Interactions with Integrin Tails” (Journal of Molecular Biology, 2013).
Positions count from the first letter of the chain named. Names and notes keep the numbering of the source. Values joined by “and” are separate entries in the source; they are usually repeats but may differ in a detail not shown here. Equal values may be shown once. “Also recorded” adds a separate entry of the source. Values belong to the molecule of their own block, whether it stands above or below them. Non-standard residues stand in square brackets, D forms with d. Residues, ends and D or L forms follow the SMILES beside them. No end group written: not given here. fluorescein‑5‑maleimide = fluorescein-5-maleimide linked to an engineered C-terminal Cys; pT = C[C@@H](OP(=O)(O)O)[C@H](N)C(=O)O; pS = N[C@@H](COP(=O)(O)O)C(=O)O

Legend:
14-3-3-ζ [1] = target: T1, 14-3-3-ζ (Homo sapiens, UniProt P63104); assay: ITC of integrin tail fragments with 14-3-3-ζ; type: binding; conditions: 298 K; for binding to 14-3-3-ζ by ITC, in words: pH 6.5, fragment in cell, 14-3-3-ζ in syringe; for Kd: 20 mM sodium phosphate, 50 mM NaCl pH 6.5, integrin fragment in cell (80–200 μM), 14-3-3-ζ in syringe (0.75–2 mM), one-site model, repeated twice
T1 construct: His10 (cleaved yes); made in house
T1 sequence (P63104 1-245): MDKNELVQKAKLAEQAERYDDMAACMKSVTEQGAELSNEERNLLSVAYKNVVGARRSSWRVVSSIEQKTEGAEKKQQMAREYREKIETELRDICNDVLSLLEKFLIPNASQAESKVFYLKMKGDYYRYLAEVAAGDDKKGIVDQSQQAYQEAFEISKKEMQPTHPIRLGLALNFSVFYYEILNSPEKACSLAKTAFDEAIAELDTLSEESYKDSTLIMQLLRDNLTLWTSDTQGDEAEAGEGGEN
Procedure: Phosphorylated α4 synthetic peptides were purchased from GL Biochem Ltd. (Shanghai). All recombinant proteins and synthetic peptides were prepared in 20 mM sodium phosphate and 50 mM NaCl (pH 6.5), and concentrations were determined by UV absorbance at 280 nm. ITC experiments using a VP-ITC200 instrument (MicroCal) were performed at 298 K as follows: the cell (volume, ~ 200 μl) contained the different integrin tail fragments, and the syringe (volume, ~ 40 μl) contained 14-3-3-ζ. A first injection of 2 μl was followed by 15 injections of 2.5 μl, with a stirring speed of 1500 rpm and a delay between injections of 180 s. A blank titration was performed by injecting 14-3-3-ζ into buffer to take the heat of dilution into account. Experiments were repeated twice for each sample. Raw data were processed and fitted with MicroCal Origin software using a one-site model where the error function is calculated as the sum of the squared deviations between the data and the model curve.

14-3-3-ζ [2] = target: T1, 14-3-3-ζ; assay: 15N-1H HSQC NMR titration of 15N-labeled integrin tails with unlabeled 14-3-3-ζ; type: binding; conditions: 15N-labeled tail 0.1 mM, equimolar unlabeled 14-3-3-ζ; NMR buffer pH 6.5, 25 °C
Procedure: Samples were prepared in NMR buffer (pH 6.5) with 5% D2O, and experiments were performed at 25 °C. Titration experiments were collected on a 500-MHz spectrometer using a water flip-back-embedded gradient enhanced ^15N–^1H HSQC pulse sequence.[46] For the assignment of the α4 and β2 backbone resonances, ^15N–^13C integrin tails of 0.6 mM concentration were used to measure CBCA(CO)NH and CBCANH experiments on a Bruker 500-MHz instrument equipped with a cryogenic probe head. Data were processed using NMRPipe[47] and analyzed with the programs CARA/XEASY[48] or CCPN Analysis.[49]

14-3-3-ζ [3] = target: T1, 14-3-3-ζ; assay: Fluorescence polarization titration of fluorescein-labeled integrin tails with 14-3-3-ζ; type: binding; conditions: fluorescein-labeled tail, 1 μM; ex 485 nm, em 520 nm
Procedure: Fig. 6 Fluorescence polarization and ITC of interactions between integrin tails and 14-3-3-ζ. (a) Fluorescence polarization titrations of fluorescein-labeled β1A, β3 and α4 with 14-3-3-ζ. […] (b–d) ITC sensorgram of an in-cell 200 μM β1A, β2 (same as in Fig. 5a) or β3 samples injected with 2 mM 14-3-3-ζ.
For fluorescence polarization experiments, integrin tails were labeled with fluorescein-5-maleimide (Invitrogen) linked to an engineered C-terminal Cys residue. Measurements were performed using 96-well microplates (Corning) in a PHERAstar FS microplate reader (BMG Labtech). Fluorescein-labeled integrin tails at 1 μM concentration were excited at 485 nm, and polarization was recorded at 520 nm.

14-3-3-ζ [4] = target: T2, 14-3-3-ζ (UniProt P63104 1-245); assay: fluorescence polarisation; fluorescein-labeled integrin tails at 1 μM titrated with increasing amounts of 14-3-3-ζ; 96-well plates; excitation 485 nm, emission 520 nm; single-site model; conditions: both partners purified
T2 construct: 14-3-3 protein zeta; Expressed from the same modified pET16b vector as the integrin tails (His10, 3C site); also called 14-3-3-ζ wt; unlabeled 14-3-3-ζ; not shown: His10, N-terminal, cleaved
T2 sequence: T1 sequence (P63104 1-245)

14-3-3-ζ [5] = target: T2, 14-3-3-ζ; assay: ITC; integrin tail fragment in the cell (80-200 μM), 14-3-3-ζ in the syringe (0.75-2 mM); 298 K; 20 mM sodium phosphate, 50 mM NaCl, pH 6.5; one-site model; conditions: both partners purified
14-3-3-ζ [6] = target: T2, 14-3-3-ζ; assay: NMR titration; 15N-1H HSQC of 15N-labeled integrin tail (0.1 mM) before and after addition of unlabeled 14-3-3-ζ (wt or variant; equimolar, 0.1 mM); 20 mM sodium phosphate, 50 mM NaCl, pH 6.5, 5% D2O, 25 °C; read-out: loss of resonance intensity (I/Io); conditions: both partners purified

- binding to 14-3-3-ζ by ITC, in words (14-3-3-ζ [1]): no binding
Molecule: YKSAVpTTVVNP [β1-11pT, synthetic β1 phospho-threonine peptide, residues 783–793]

- change of integrin tail resonances on addition of 14-3-3-ζ, in words (14-3-3-ζ [2]): selective broadening of β2 resonances
Molecule: GSKALIHLSDLREYRRFEKEKLKSQWNNDNPLFKSATTTVMNPKFAES [β2 wt, recombinant unphosphorylated β2 integrin tail, residues 724–769]
- binding to 14-3-3-ζ by ITC, in words (14-3-3-ζ [1]): only a weak interaction; also recorded: the interaction is weak, in the millimolar range
- binding to 14-3-3-ζ by ITC, in words (14-3-3-ζ [1]; listed as β2): Only β1A gave a binding curve that could be fitted

Molecule: GS RLSVEIYDRREYSRFEKEQQQLNWKQDSNPLYKSAITTTINPRFQEADSPTL (GSRLSVEIYDRREYSRFEKEQQQLNWKQDSNPLYKSAITTTINPRFQEADSPTL; left off: His10, N-terminal, cleaved) [β7 wt, recombinant β7 integrin tail, residues 747–798]
- change of integrin tail resonances on addition of 14-3-3-ζ, in words (14-3-3-ζ [2]): intensity reduction for several resonances

Molecule: paxillin: construct of the N-terminal region of paxillin (residues 1–323) that included all LD motifs
- binding to 14-3-3-ζ by ITC, in words (14-3-3-ζ [1]): no pairwise interaction was detected by ITC

Molecule: GS KLLMIIHDRREFAKFEKEKMNAKWDTQENPIYKSPINNFKNPNYGRKAGL (GSKLLMIIHDRREFAKFEKEKMNAKWDTQENPIYKSPINNFKNPNYGRKAGL; left off: His10, N-terminal, cleaved) [β1D wt, recombinant β1D integrin tail, residues 752–801]
- change of integrin tail resonances on addition of 14-3-3-ζ, in words (14-3-3-ζ [2]): interacts with 14-3-3-ζ in a very similar way to β1A

Molecule: GPLGSKAGFFKRQYKDILQEENRRDSWSYINSKSNDD [α4 S1011D, recombinant α4 integrin tail phospho-mimetic, S1011D]
- change of integrin tail resonances on addition of 14-3-3-ζ, in words (14-3-3-ζ [2]): significant decrease in α4 amide resonance intensities

- Kd (14-3-3-ζ [1]): > 300 µM and 315 µM
Molecule: CC[C@H](C)[C@H](NC(=O)[C@H](COP(=O)(O)O)NC(=O)[C@H](CCCCN)NC(=O)[C@H](Cc1ccc(O)cc1)NC(=O)[C@H](CCC(N)=O)NC(=O)[C@H](CCCNC(=N)N)NC(=O)[C@H](CCCCN)NC(=O)[C@@H](N)Cc1ccccc1)C(=O)N[C@@H](CC(C)C)C(=O)N[C@@H](CCC(N)=O)C(=O)N[C@@H](CCC(=O)O)C(=O)O [α4-11pS] (H-FKRQYK[pS]ILQE-OH)

- Kd (14-3-3-ζ [1]): 7.9 ± 3.1 µM
Molecule: KALIHLSDLREYRRFEKEKLKSQWNNDNPLFKSA[pT]TTVMNPKFAES [β2-45pT]

- binding to 14-3-3-ζ by ITC, in words (14-3-3-ζ [1]): no interaction was detected by ITC
Molecule: paxillin residues 111–128: phosphorylated peptide containing a putative 14-3-3 binding motif, corresponding to paxillin residues 111–128 (VGEEEHVYSFPNKQKSAE; also: phosphorylated; UniProt P49023 111-128, looked up, fragment)

- binding to 14-3-3-ζ by fluorescence polarization, in words (14-3-3-ζ [3]): No binding was detected
Molecule: GS KLLITIHDRKEFAKFEEERARAKWDTANNPLYKEATSTFTNITYRGT [β3 wt, recombinant β3 integrin tail, residues 742–788]
- binding to 14-3-3-ζ by ITC, in words (14-3-3-ζ [1]): Only β1A gave a binding curve that could be fitted
- change of integrin tail resonances on addition of 14-3-3-ζ, in words (14-3-3-ζ [2]): intensity reduction for several resonances

- Kd (14-3-3-ζ [1]): 23.6 ± 2.1 µM
Molecule: CC[C@H](C)[C@H](NC(=O)[C@H](Cc1ccc(O)cc1)NC(=O)[C@H](CO)NC(=O)[C@H](Cc1c[nH]c2ccccc12)NC(=O)[C@H](CO)NC(=O)[C@H](CC(=O)O)NC(=O)[C@H](CCCNC(=N)N)NC(=O)[C@H](CCCNC(=N)N)NC(=O)[C@H](CC(N)=O)NC(=O)[C@H](CCC(=O)O)NC(=O)[C@H](CCC(=O)O)NC(=O)[C@H](CCC(N)=O)NC(=O)[C@H](CC(C)C)NC(=O)[C@@H](NC(=O)[C@H](COP(=O)(O)O)NC(=O)[C@H](CCCCN)NC(=O)[C@H](Cc1ccc(O)cc1)NC(=O)[C@H](CCC(N)=O)NC(=O)[C@H](CCCNC(=N)N)NC(=O)[C@H](CCCCN)NC(=O)[C@H](Cc1ccccc1)NC(=O)[C@H](Cc1ccccc1)NC(=O)CN)[C@@H](C)CC)C(=O)N[C@@H](CC(N)=O)C(=O)N[C@@H](CO)C(=O)N[C@@H](CCCCN)C(=O)N[C@@H](CO)C(=O)N[C@@H](CC(N)=O)C(=O)N[C@@H](CC(=O)O)C(=O)N[C@@H](CC(=O)O)C(=O)O [α4-30pS] (H-GFFKRQYK[pS]ILQEENRRDSWSYINSKSNDD-OH)

- Kd (14-3-3-ζ [4]): 95 ± 16 µM
Molecule: GSKLLMIIHDRREFAKFEKEKMNAKWDTGENPIYKSAVTTVVNPKYEGKC(fluorescein‑5‑maleimide) (domain or fragment) [fluorescein-labeled β1A integrin tail]

- Kd (14-3-3-ζ [5]): > 300 µM
B1: α4-11pS phospho-peptide (peptide)
peptide: FKRQYK[pS]ILQE
notes: integrin α4 cytoplasmic tail, residues 1005-1015 of UniProt P13612; S1011 is phospho-serine; also called short phosphorylated α4 integrin peptide; source: synthetic peptide, bought: GL Biochem Ltd. (Shanghai)

- Kd (14-3-3-ζ [5]): 280 ± 40 µM
B2: β1A integrin cytoplasmic tail, wild type (domain or fragment, human (from the printed UniProt entry))
chain: GSKLLMIIHDRREFAKFEKEKMNAKWDTGENPIYKSAVTTVVNPKYEGK
notes: residues from the cloning tag at the N-terminus; integrin β1A cytoplasmic tail, residues 752-798 of UniProt P05556; 15N-labelled for NMR, unlabelled for ITC; also called β1A wt; not shown: His10, N-terminal, cleaved

- Kd (14-3-3-ζ [5]): 8 µM
B3: β2-45pT phospho-peptide (peptide)
peptide: KALIHLSDLREYRRFEKEKLKSQWNNDNPLFKSATTTVMNPKFAES
modifications: also: phospho-threonine at 758
notes: integrin β2 cytoplasmic tail, residues 724-769 of UniProt P05107; T758 is phospho-threonine; also called long β2 phospho-peptide; source: synthetic peptide

- Kd (14-3-3-ζ [5]): ~60 µM
B4: α4 integrin cytoplasmic tail S1011D (domain or fragment, human (from the printed UniProt entry))
chain: GPLGSKAGFFKRQYKDILQEENRRDSWSYINSKSNDD
notes: residues from the cloning tag at the N-terminus; integrin α4 cytoplasmic tail, residues 1001-1032 of UniProt P13612, with S1011D; 15N-labelled for NMR, unlabelled for ITC; also called α4 S1011D; α4 phospho-mimetic; not shown: His10, N-terminal, cleaved

- Kd (14-3-3-ζ [5]): 4 µM
B5: β2-11pT phospho-peptide (peptide)
peptide: PLFKSATTTVM
modifications: also: phospho-threonine at 758
notes: integrin β2 cytoplasmic tail, residues 752-762 of UniProt P05107; T758 is phospho-threonine; also called short β2 phospho-peptide; source: synthetic peptide

- binding result (14-3-3-ζ [6]): binds
B6: α4 integrin cytoplasmic tail, wild type (domain or fragment, human (from the printed UniProt entry))
chain: B4 chain with D16S
notes: residues from the cloning tag at the N-terminus; integrin α4 cytoplasmic tail, residues 1001-1032 of UniProt P13612; 15N-labelled for NMR, unlabelled for ITC; also called α4 wt; full-length α4 integrin tail; not shown: His10, N-terminal, cleaved

- Kd (14-3-3-ζ [5]): ~24 µM
B7: α4-30pS phospho-peptide (peptide)
peptide: GFFKRQYK[pS]ILQEENRRDSWSYINSKSNDD
notes: integrin α4 cytoplasmic tail, residues 1003-1032 of UniProt P13612; S1011 is phospho-serine; also called phosphorylated α4-derived peptide; source: synthetic peptide, bought: GL Biochem Ltd. (Shanghai)
